Reference: publication PMC5156306

Target: WT CCR5 (5555), HA-tagged, on transfected HEK293T cells (UniProt P51681)
Experiment: competition assay, flow cytometry on cells
Settings: DyLight488-LukE 595 nM, LukD DN 565 nM, read off a plot
[1] = 74.5 nM unlabeled LukE variant, parent: est. 13
[2] = 149 nM unlabeled LukE variant, parent: est. 11
[3] = 298 nM unlabeled LukE variant, parent: est. 10
[4] = 596 nM unlabeled LukE variant, parent: est. 9.2

Row | Substance | response [1] [MFI] | response [2] [MFI] | response [3] [MFI] | response [4] [MFI]
1 | WT LukE LukE/LukS^DR1 (DR1, residues 57 to 75, replaced by the corresponding region of LukS-PV) | 19 | 18 | 15 | 14
2 | WT LukE LukE/LukS^DR2 (DR2, residues 140 to 150, replaced by the corresponding region of LukS-PV) | 13 | 11 | 9.8 | 9
3 | WT LukE LukE/LukS^DR3 (DR3, residues 164 to 178, replaced by the corresponding region of LukS-PV) | 15 | 12 | 11 | 9.7
4 | WT LukE LukE/LukS^DR4 (DR4, residues 182 to 196, replaced by the corresponding region of LukS-PV) | 12 | 9.9 | 9.3 | 8.3
